US20210317204A1 (ALMAC DISCOVERY, published 2021)
Blank lines part the entries; values can stand above or below the binder they belong to.

Key:
[1] = target: T1, rat ROR1 extracellular domain-Fc fusion (rat, UniProt D3ZZ97 30-406); test: SPR, rROR1 on chip
T1 construct: extracellular domain; also called rROR1

[2] = target: T2, human ROR2 extracellular domain-Fc fusion (human, UniProt Q01974 34-403); test: ELISA on coated human ROR2-Fc
T2 construct: extracellular domain; also called hROR2; ROR2-hFc

[3] = target: T3, human ROR1 extracellular domain-Fc fusion (human, UniProt Q01973 30-406); test: SPR, ROR1-hFc on chip; E. coli
T3 construct: extracellular domain; also called hROR1; ROR1-hFc

[4] = target: T1, rat ROR1 extracellular domain-Fc fusion; test: ELISA on coated rat ROR1-Fc
[5] = target: T4, mouse ROR1 extracellular domain-Fc fusion (mouse, UniProt Q9Z139 30-406); test: SPR, mROR1 on chip
T4 construct: extracellular domain; also called mROR1; mouse ROR1-Fc
T4 sequence (Q9Z139 30-406): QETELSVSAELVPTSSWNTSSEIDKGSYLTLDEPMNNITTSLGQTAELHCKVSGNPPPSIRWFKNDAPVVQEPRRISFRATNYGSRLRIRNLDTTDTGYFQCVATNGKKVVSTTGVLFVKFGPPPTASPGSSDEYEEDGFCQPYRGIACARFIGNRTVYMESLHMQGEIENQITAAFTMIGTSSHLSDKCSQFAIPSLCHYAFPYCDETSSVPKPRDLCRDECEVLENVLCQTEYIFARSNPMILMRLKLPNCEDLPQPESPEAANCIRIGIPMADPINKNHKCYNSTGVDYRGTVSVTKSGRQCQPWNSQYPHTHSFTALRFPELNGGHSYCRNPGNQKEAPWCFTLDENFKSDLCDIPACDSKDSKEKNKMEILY

[6] = target: T2, human ROR2 extracellular domain-Fc …; test: SPR
mouse serum albumin = target: T5, mouse serum albumin (mouse, UniProt P07724 25-608); test: SPR, albumin on chip
T5 construct: also called MSA
T5 sequence (P07724 25-608 limits assumed): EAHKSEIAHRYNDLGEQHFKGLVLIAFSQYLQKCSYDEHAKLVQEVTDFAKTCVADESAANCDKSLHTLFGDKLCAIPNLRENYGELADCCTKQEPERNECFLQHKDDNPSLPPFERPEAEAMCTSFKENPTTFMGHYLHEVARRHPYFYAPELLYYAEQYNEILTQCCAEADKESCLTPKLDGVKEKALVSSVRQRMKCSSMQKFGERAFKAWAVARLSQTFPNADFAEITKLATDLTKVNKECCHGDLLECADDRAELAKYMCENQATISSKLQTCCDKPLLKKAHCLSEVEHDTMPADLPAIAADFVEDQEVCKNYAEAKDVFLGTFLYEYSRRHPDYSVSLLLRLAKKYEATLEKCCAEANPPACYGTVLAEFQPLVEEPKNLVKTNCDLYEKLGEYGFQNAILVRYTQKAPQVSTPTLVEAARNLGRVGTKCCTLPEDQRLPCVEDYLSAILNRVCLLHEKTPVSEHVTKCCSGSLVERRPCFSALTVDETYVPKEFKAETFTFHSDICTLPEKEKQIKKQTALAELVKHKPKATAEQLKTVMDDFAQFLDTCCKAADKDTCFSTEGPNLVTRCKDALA

rat serum albumin = target: T6, rat serum albumin (rat, UniProt P02770 25-608); test: SPR, albumin on chip
T6 construct: also called RSA
T6 sequence (P02770 25-608 limits assumed): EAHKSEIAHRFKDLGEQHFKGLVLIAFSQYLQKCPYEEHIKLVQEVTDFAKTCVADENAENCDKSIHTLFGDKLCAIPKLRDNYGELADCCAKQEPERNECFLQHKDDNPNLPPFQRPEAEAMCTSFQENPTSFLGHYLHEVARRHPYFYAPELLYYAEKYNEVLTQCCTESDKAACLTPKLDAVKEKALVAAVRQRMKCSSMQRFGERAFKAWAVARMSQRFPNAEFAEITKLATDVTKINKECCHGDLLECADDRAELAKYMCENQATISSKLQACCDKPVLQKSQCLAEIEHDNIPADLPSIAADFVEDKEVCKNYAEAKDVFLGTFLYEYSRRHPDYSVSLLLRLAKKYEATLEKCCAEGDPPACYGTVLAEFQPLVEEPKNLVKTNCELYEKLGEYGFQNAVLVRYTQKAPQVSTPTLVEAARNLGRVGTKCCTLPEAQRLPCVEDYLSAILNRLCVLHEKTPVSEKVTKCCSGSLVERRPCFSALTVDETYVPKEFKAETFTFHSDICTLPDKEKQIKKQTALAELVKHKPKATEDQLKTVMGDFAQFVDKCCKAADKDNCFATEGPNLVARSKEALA

D3 VNAR = target: T7, D3 VNAR; test: competition ELISA: VNAR pre-incubated with peptide 5, residual binding to coated huROR1-Fc [continued]
T7 construct: shark VNAR domain; also called D3 WT; D3 monomer; not shown: C-terminal His6 or His6Myc tag (His6Myc in flow cytometry)
T7 sequence (chain, as listed by the source): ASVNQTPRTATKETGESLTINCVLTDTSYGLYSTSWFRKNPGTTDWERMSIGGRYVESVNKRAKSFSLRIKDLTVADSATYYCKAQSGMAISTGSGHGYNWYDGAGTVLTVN

D3-[G4S]5-D3 homodimer = target: T8, D3-[G4S]5-D3 homodimer; test: as above
T8 construct: also called D3-D3; D3D3; not shown: C-terminal His6 or His6Myc tag (His6Myc in flow cytometry)
T8 sequence (chain, as listed by the source): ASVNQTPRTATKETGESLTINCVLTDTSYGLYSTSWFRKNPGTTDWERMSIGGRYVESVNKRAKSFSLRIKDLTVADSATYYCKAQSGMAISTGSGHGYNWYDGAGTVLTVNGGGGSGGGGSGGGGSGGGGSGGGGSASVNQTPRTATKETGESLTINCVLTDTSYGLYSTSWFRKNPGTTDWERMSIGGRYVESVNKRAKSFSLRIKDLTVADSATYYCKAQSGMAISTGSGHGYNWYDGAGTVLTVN

[7] = target: T9, B1 VNAR (C-terminal His6 or His6Myc tag, not said which); test: as above
T9 construct: shark VNAR domain; also called VNAR B1; B1 monomer
T9 sequence (chain, as listed by the source): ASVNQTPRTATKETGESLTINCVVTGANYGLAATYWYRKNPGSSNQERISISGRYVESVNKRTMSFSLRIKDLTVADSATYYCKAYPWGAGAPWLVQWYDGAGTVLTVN

Kd [1]: 17.7 nM
koff [1]: 0.045 s⁻¹
kon [1]: 2.86e+06 M⁻¹ s⁻¹
binding result [2]: no binding (tested: 10 ug/ml)
Kd [3]: 19.1 nM
koff [3]: 0.0442 s⁻¹
kon [3]: 2.47e+06 M⁻¹ s⁻¹
EC50 (read off the curve) [4]: ~0.3 µg/mL
Kd [5]: 14.3 nM
koff [5]: 0.0408 s⁻¹
kon [5]: 2.95e+06 M⁻¹ s⁻¹
B1: P3A1 VNAR (C-terminal His6 or His6Myc tag, not said which) (VNAR, not shown: small tags and cut ends)
VNAR: TRVDQTPRTATKETGESLTINCVLTDTSYGLYSTSWFRKNPGTTDWERMSIGGRYVESVNKGAKSFSLRIKDLTVADSATYYCKAREARHPWLRQWYDGAGTVLTVN
notes: shark VNAR domain; also called P3A1 monomer

binding result [6]: no binding
binding result (mouse serum albumin): no binding
binding result (rat serum albumin): no binding
binding result [1]: no binding
binding result [5]: no binding
B2: 2V control VNAR (VNAR, not shown: small tags and cut ends)
VNAR: TRVDQTPRTATKETGESLTINCVLTDTSYGLYSTSWFRKNPGTTDWERMSIGGRYVESVNKGAKSFSLRIKDLTVADSATYYCKAQSLAISTRSYWYDGAGTVLTVN
notes: control VNAR from a naive library, no known target; also called 2V monomer

binding result (D3 VNAR): no binding (tested: 1000 nM)
binding result (D3-[G4S]5-D3 homodimer): no binding (tested: 1000 nM)
binding result [7]: no binding (tested: 1000 nM)
B3: peptide 5 (peptide)
peptide: RSTIYGSRLRIRNLDTTDTGYFQ
notes: also called ROR1 ECD Peptide 5
